Reference: patent US7915393B2 (Corixa Corporation, priority 2001, dated 2011)

System: WT1-specific CTL targets (DC transduced with WT1 or pulsed with WT1 peptides)
Experiment: CTL by chromium release after WT1 DNA or adenovirus/alphavirus immunization
Type: in vivo, C57/BI6 mice; HLA-A2/Kb transgenic mice
Details: C57/BI6 mice, 3 x 100 μg, 25:1 E:T ratio
Experimental: Mice were sacrificed 2-3 weeks after the final immunization and CTL were evaluated by standard Chromium release assay.
Mice were sacrificed 2-3 weeks after the final immunization and CTL were evaluated by standard Chromium release assay. […] Thus, this immunization strategy also effectively elicits WT1-specific CTL in vivo.

B1: WT1 DNA: naked DNA encoding the splice variant of WT1, SEQ ID NO:381 (nucleic acid)
DNA: ATGGGCTCCGACGTTCGTGACCTGAACGCACTGCTGCCGGCAGTTCCGTCCCTGGGTGGTGGTGGTGGTTGCGCACTGCCGGTTAGCGGTGCAGCACAGTGGGCTCCGGTTCTGGACTTCGCACCGCCGGGTGCATCCGCATACGGTTCCCTGGGTGGTCCGGCACCGCCGCCGGCACCGCCGCCGCCGCCGCCGCCGCCGCCGCACTCCTTCATCAAACAGGAACCGAGCTGGGGTGGTGCAGAACCGCACGAAGAACAGTGCCTGAGCGCATTCACCGTTCACTTCTCCGGCCAGTTCACTGGCACAGCCGGAGCCTGTCGCTACGGGCCCTTCGGTCCTCCTCCGCCCAGCCAGGCGTCATCCGGCCAGGCCAGGATGTTTCCTAACGCGCCCTACCTGCCCAGCTGCCTCGAGAGCCAGCCCGCTATTCGCAATCAGGGTTACAGCACGGTCACCTTCGACGGGACGCCCAGCTACGGTCACACGCCCTCGCACCATGCGGCGCAGTTCCCCAACCACTCATTCAAGCATGAGGATCCCATGGGCCAGCAGGGCTCGCTGGGTGAGCAGCAGTACTCGGTGCCGCCCCCGGTCTATGGCTGCCACACCCCCACCGACAGCTGCACCGGCAGCCAGGCTTTGCTGCTGAGGACGCCCTACAGCAGTGACAATTTATACCAAATGACATCCCAGCTTGAATGCATGACCTGGAATCAGATGAACTTAGGAGCCACCTTAAAGGGCCACAGCACAGGGTACGAGAGCGATAACCACACAACGCCCATCCTCTGCGGAGCCCAATACAGAATACACACGCACGGTGTCTTCAGAGGCATTCAGGATGTGCGACGTGTGCCTGGAGTAGCCCCGACTCTTGTACGGTCGGCATCTGAGACCAGTGAGAAACGCCCCTTCATGTGTGCTTACCCAGGCTGCAATAAGAGATATTTTAAGCTGTCCCACTTACAGATGCACAGCAGGAAGCACACTGGTGAGAAACCATACCAGTGTGACTTCAAGGACTGTGAACGAAGGTTTTTTCGTTCAGACCAGCTCAAAAGACACCAAAGGAGACATACAGGTGTGAAACCATTCCAGTGTAAAACTTGTCAGCGAAAGTTCTCCCGGTCCGACCACCTGAAGACCCACACCAGGACTCATACAGGTGAAAAGCCCTTCAGCTGTCGGTGGCCAAGTTGTCAGAAAAAGTTTGCCCGGTCAGATGAATTAGTCCGCCATCACAACATGCATCAGAGAAACATGACCAAACTCCAGCTGGCGCTTTGAG
lysis (WT1-specific cytotoxic T cell response): 40%
